Results published in the DeepSol protein solubility set.

Assay: soluble on expression in E. coli; label from the status in PepcDB or PDB records

Sequence | soluble on expression in E. coli
MLGGYAHRIARIDLSTGQVEYFAPDPKDLEMYVGGRGLGVKYVFENGPQVDPLGPENLLCIMNGPLSGTRAKMSGRLAVVTKSPLTGTVTDSHMGGWTAAKLKWAGFDGLLIKGASEKPVYLLVKDGEVSIHDASDLWGKTTHETCRILRERHGEEADVMAIGPAGENLVRFANWINNDERAAGRGGTGAVAGSKKLKAIVVVGTHDKMPQPKDPELWKEADRLASATINDPKNVTAPKKGGLSLYGTNVLMNITNVMGALPTFNAQHTCIEGAEKISGEYIREHRLIKDNTCHACPVACKKMVEVHINGKTIRFESYEYESAWALGAHSGHTDTDWTGYAIYLCNAYGMDTIEAGNAIAVLMEATEKGYYQGEDGIRFGDKEGEIRVLEAIAYRKGVGDMLAEGPARFAKAIGHPEIALEVKGQSIPAYDPRGLKGMGIAYATSNRGACHLRAYTPASEILGVPYKTDPLAWEGKGKLTKLFQDLSAFTDSLDLCKFSQFAEGPEEYAKQLAAYWGRPVTPEEILRIGERIYNLERYYNNLAGWGEGSDYLPERFLKEPSDCAGSKGQVTELDRMLEEYYRERGWERGVVPPAKLQELGILSQAADD | soluble
KLGTSTGEFTGSNQTTQPTAIMELINKVQKDAANAQLSIAAPLSSSAYIPKGDVTIKDIMSVYVYENYLYGIKMTGKQLKDWLEYSVRYYKQVSSPNDSIAKDPALNVPDYNLDQLYGATYDIDLTQPACTIDPSTGRIASGDRIKNLKINGVPIKDSDVFTVAINDYRYNGGGGFMKAAGISNTDPSIVTYSSAKALGDDGQVRSLMQSYIKNNQTISPENSNNWKLYTT | not soluble
MILFVGFLLMEIVMPQISRTALVPYSAEQMYQLVNDVQSYPQFLPGCTGSRILESTPGQMTAAVDVSKAGISKTFTTRNQLTSNQSILMNLVDGPFKKLIGGWKFTPLSQEACRIEFHLDFEFTNKLIELAFGRVFKELAANMVQAFTVRAKEVYSARLEHHHHHH | not soluble
MTSQRCRRRYFMMIRERIEEKLRAAFQPVFLEVVDESYRHNVPAGSESHFKVVLVSDRFTGERFLNRHRMIYSTLAEELSTTVHALALHTYTIKEWEGLQDTVFASPPCRGAGSIA | soluble
MGHHHHHHSHGGCRELRSTKYISDGQCTSISPLKELVCAGECLLLPVLPNWIGGGYGTKYWSRRSSQEWRCVNDKTRTQRIQLQCQDGSTRTYKITVVTACKCKRYTRQHNESSHNFESMSPAKPVQHHRERKRASKSSKHSMS | not soluble
VRKRMVIGLSTGSDDDDVEVIGGVDPRLIAVQENDSDESSLTDLVEQPAKVMRIGTMIKQLLEEVRAAPLDEASRNRLRDIHATSIRELEDGLAPELREELDRLTLPFNEDAVPSDAELRIAQAQLVGWLEGLFHGIQTALFAQQMAARAQLQQMRQGALPPGVGKSGQHGHGTGQYL | soluble
MHVIDLSYFVKIYRSKNKHISVNFLRHLHRAGDLHLSGTTRCIYEDVIMKKCLTLLIATVLSGISLTAYAAQPMSNLDSGQLRPAGTVSATGASNLSDLEDKLAEKAREQGAKGYVINSAGGNDQMFGTATIYK | soluble
MSERLYYFVIVGRDDRVLYDLLYPASLSELDWRTSSELSSPAERGDFEPHHFIPSIQVLLQFVAYSALDHIEEKYWLTSARSLKHIFRFRDWSASVQLTPNAATRFVLVHGASDDASRNVRAFLHAVYEAYVPHVVCNPFQEEDAPITSKRFHEVAKNLAKRYFSG | not soluble
MSADVVENGRAYNALWWAKVQSGGPQKVPADTPAVAGLARAVEPDGSGLWMLPTVPDGAGHGVLEELGAPPVAVEMPNETARVLAICVACCWTDRDASTWPGVTGTLAQVKAVYAGMRGRAEQSSDLTLIIGSLRRLHATHWLLWNEKAGEVRLGPRTITWSPSDLATLREICRVLPDPPPAVLVARAPEPTPDPLPVAASADGPAPSSDQAAASALPSPAAPPADGAPGPTPDPSPSLTSTSPAPSAPARSTEQSG | not soluble
MSSNNAGESDGTGPALPTVWPGNAYPLGATYDGAGTNFSLFSEIAEKVELCLIDEDGVESRIPLDEVDGYVWHAYLPNITPGQRYGFRVHGPFDPAAGHRCDPSKLLLDPYGKSFHGDFTFGQALYSYDVNAVDPDSTPPMVDSLGHTMTSVVINPFFDWAYDRSPRTPYHETVIYEAHVKGMTQTHPSIPPELRGTYAGLAHPVIIDHLNELNVTAVELMPVHQFLHDSRLLDLGLRNYWGYNTFGFFAPHHQYASTRQAGSAVAEFKTMVRSLHEAGIEVILDVVYNHTAEGNHLGPTINFRGIDNTAYYRLMDHDLRFYKDFTGTGNSLNARHPHTLQLIMDSLRYWVIEMHVDGFRFDLASTLARELHDVDRLSAFFDLVQQDPVVSQVKLIAEPWDVGEGGYQVGNFPGLWTEWNGKYRDTVRDYWRGEPATLGEFASRLTGSSDLYEATGRRPSASINFVTAHDGFTLNDLVSYNDKHNEANGENNRDGESYNRSWNCGVEGPTDDPDILALRARQMRNMWATLMVSQGTPMIAHGDEIGRTQYGNNNVYCQDSELSWMDWSLVDKNADLLAFARKATTLRKNHKVFRRRRFFEGEPIRSGDEVRDIAWLTPSGREMTHEDWGRGFDRCVAVFLNGEAITAPDARGERVVDDSFLLCFNAHDHDVEFVMPHDGYAQQWTGELDTNDPVGDIDLTVTATDTFSVPARSLLVLRKTL | not soluble
MGSDKIHHHHHHMNLPLNVAPVAAAPASPIVELRQYTLNPGQRETLIALFDREFIESQEATGMTIIGQFRDLDRPDMFVWLRGFDGMDTRKEALAAFYDGPVWAAHRDAANATMTDSDDVLLLKPAWPSAGFDLSGLQRPVSAEQENSSNENHLGGIVVIRIHHLRSGAETEFASRFAAEAALIMKAHGVRLLAAFASEHAQNSFPRLPVRASENVFLSIARFDSAEAHASQEAALAAAPAWQSFLRAVQLDLTKPTETLRLSPTSRSLVGARFRMPR | not soluble
MSAIEVTNLVKKFHGQTVLHGIDLEVKPGEVVAIIGPSGSGKTTLLRCINLLEQPEAGTIKVGDIIIDTARPFSQQKGLIRQLRQHVGFVFQSFNLFPHRTVLENIIEGPVIVKGEPKAEATALARELLAKVGLAGKESRYPRRLSGGQQQRVAIARALAMRPEVILFDEPTSALDPELVGEVLNTIRQLAQEKRTMVIVTHEMSFARDVADRAIFMDQGQIVEQGPAKTLFADPQHPRTRQFLEKFLVK | not soluble
MGSDKIHHHHHHMNNLDIKTLGQVFTPKKIVDFMLTLKHNHGSVLEPSAGDGSFLKRLKKAVRIEIDPKICPKNALCMDFFDYPLENQFDTIIGNPPYVKHKDIAPSTKEKLHYSLFDERSNLYLFFIEKAIKHLKPKGELIFITPRDFLKSTSSVKLNEWIYKEGTITHFFELGDQKVFPNAMPNCVIFRFCKGNFSRITNDGLQFLCKKGILYFLNQSYTQKLSEVFKVKVGAVSGCDKIFKNEKYGNLEFVTSITKRTNALEKMVFVNEPNDYLLQHKDSLMQRKIKKFNENNWFEWGRMHHISPKKRIYVNAKTHQKNPFFIHQCPNYDGSILALFPYNQNLDLQNLCDKLNAINWQELGFVCGGRFLFSQRSLENALLPKDFLNLG | not soluble
FSDTLEESSPIAAIFDTENLEKISITEGIERGIVDSITGQRLLEAQACTGGIIHPTTGQKLSLQDAVSQGVIDQDMATRLKPAQKAFIGFEGVKGKKKMSAAEAVKEKWLPYEAGQRFLEFQYLTGGLVDPEVHGRISTEEAIRKGFIDGRAAQRLQDTSSYAKILTCPKTKLKISYKDAINRSMVEDITGLRLLEAASVSSKGLPSPYNMSSA | soluble
MGSDKIHHHHHHMVAIEKGGARLVFAPEVGGAVAAFTVDGREVLRPTAPQVDDALLTANFPLVSFCNRIPNGRFEWRGTSVTLPPNLEGHPHPLHGQGWRMPWAVEAIETDRALLVFEHPAGDWPWAYRAEQAFTLSETGFRVTLTVINTGEEDMPAGLGFHPYFPARPGERLAAQNDGVWLIDEDVLPTVRHAGRWGPDWAVGAPVAGHALIDHCYTGWNQRAVLSAPGRPDTVITASPDCAWLHVYAPPGEGYYCVEPCASRPNPFGEGETGMVTLCPGERRSIWMEIATG | not soluble
IKDWTWKMGGNISYNKNKVVTLPDNGQPKNRIGGQQIYTGRKVLDEAGNQVDEVIFVGGKQEGQEPGILVGYKAEGLYKDWKDIPGDLVVKTGNYQGKYQYGPKAYAALSDAEKAKALQIEPGDVKWKDINNDGTIDAFDQIVIGNTTPHWFGGFNTTLTWKGLTLYGRFDFALDYWIYDNTTPWFLGCMQGGYNTTTDVFNTWSEENPNAKYPRYVWADQLGTANYYRTSTMFAYKGNYLAIREISLSYSLPQNIARKFYCQKLDVSVTGQNLGYITSANVATPEVSSAGSGYALPRTLLFGINVTF | not soluble
